# From the supplement of paper PMC9170038
# Test system: MS2 coat protein
# Experiment: apparent KD of MS2 coat protein; higher = weaker reporter binding
# Settings: Eterna round: R107
# Method in brief: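 Titrations with SNAP-549-labelled MS2 coat protein ran in twofold steps from 0.7 or 1.5 nM to 3 µM, each step taking 0.8–1.5 h at the start and 10–20 min toward the end. The targets were designed RNA switches transcribed on-chip from Illumina sequencing clusters, held in 100 mM Tris-HCl pH 7.5, 80 mM KCl, 4 mM MgCl2, without or with constant ligand. Apparent KD was taken per design as the median of normalised cluster binding-curve fits.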
# [1] = input ligand: theophylline 20 uM
# [2] = input ligand: theophylline 2 mM
# [3] = input ligand: tryptophan 2.4 mM
Sequence,apparent KD of MS2 coat protein (input ligand: arginine 13.2 mM),apparent KD of MS2 coat protein (input ligand: none),apparent KD of MS2 coat protein [1],apparent KD of MS2 coat protein [2],apparent KD of MS2 coat protein [3]
CCUUAAUAUAGAAGGAGCGCGCUAACAUGAGGAUCACCCAUGUAAAGGGUUUUGGGCUUAGCGCAGGUAGGUCGCUAUAAGAACC [Arg B Ex t2],60.1 nM,106 nM,95 nM,127 nM,93.9 nM
AAUAACAUGAGGAUCACCCAUGUAAGUAAACGAGGACCGGUACGGCCGCCACUCGAAUAAAUAAAGUACCGGUAAGAUCCAUAGA [Default title],17.9 nM,–,25.9 nM,22.5 nM,–
AAUAUAAGUGUAAUUAUAUUUAUAUCUGAUACCAGACUCUCAUGUGUCCCUUGGCAGCAGUUACAUGAGGAUCACCCAUGUAUUA [JR_Nu_SSTheophyA_Sub025],30.6 nM,–,67.6 nM,–,73.7 nM
CAUAUAUAUAGAAGGAGCGACAUGAGGAUCACCCAUGUCUACCACGUCGAAAGACGCUCAUGUCAGGUAGGUCGCUAUAUAUAUG [Astros-Eli-mod2],56.2 nM,115 nM,154 nM,198 nM,147 nM
UUCAGCUAGUCGGCCGCCACUACCUGAGGAUCACCCUGGUAGGUCCACACUGCUUCGGCAGUGAGUAGGACCGGGACUAGCUGAG,18.3 nM,23.2 nM,25.2 nM,19 nM,52.7 nM
CGUAUUGGAAACAGUACGAGUGAUCCGGUCCGAGGACCGGUACGGCCGCCACUCGAUAUAAAUAAACAUGAGGAUCACCCAUGUA [Ex Tryptophan A 12],17.1 nM,–,16.9 nM,20.3 nM,–
UCCUCCUCCGCAAGGAGGAGGAGUUGCGAUACCAGCCCGGAAACGGGCCCUUGGCAGCGCACAUGAGGAUCACCCAUGUCAUGUU [#1 Exclusion - Theophylline A Attempt #8 (HarryS)],14.6 nM,18.1 nM,19.8 nM,30.6 nM,18 nM
CCAUGCAGGUCGGCCGCCACUACACACAUGAGGAUCACCCAUGUAGUUACUGGGUGAAGUGGCAGUAGGACCGGGACCUGCACAC [Brourdmod20],84 nM,289 nM,446 nM,601 nM,335 nM
AUCGUACCUGAGGAUACCAGCAUGUGAUCAUAACAUGAGGAUCACCCAUGUAAUCAGUGAUGCCCUUGGCAGCUUGAUCGGUACA [Same State - Theophylline B (Freestyle 11)],53.4 nM,–,83.6 nM,–,63.8 nM
AGACAUGAGGAUCACCCAUGUAGCAUGGAUACCAGAUGCAGAUUUAUCCCUUGGCAGCUGUGGUAAAGUGAUGCAUUGCUCCUAG [Exclusion - Theophylline A (Freestyle 6)],18.8 nM,22.6 nM,31 nM,27.1 nM,23.8 nM
AAGAACCAGACGGCCGCCACUGGCCAGACAGGGUUCAUGGAAACAUGAGGAUCACCCAUGUCUUCCAGGACCGGGUCUGAAGAGG [Esbiisin],8.61 nM,8.56 nM,9.86 nM,9.33 nM,11.3 nM
AAAAUCCUACCUGAGGAUCACCCUGGUGAAGGAGCGCCCGAAAGGGCAGGUAGGUCGCACCUGAGGAUCACCCGGGUAACCUAAA [ArgEX 14 #DoubleMS2 #OpenEnded #AlternativeMS2],78.7 nM,170 nM,139 nM,200 nM,151 nM
AGCCCGGGAGCGGCCGCCACUGGAGGCUGAGCGCGACAUGAGGAUCACCCAUGUGUGCCCGGCGUUAGGACCGGGCUCGCGUGGU [#1 Same State - Tryptophan B Attempt #23 (HarryS)],28.4 nM,29.4 nM,75 nM,79.2 nM,32.2 nM
AUAACAUGAGGAUCACCCAUGUAAGCUGAAGGAGCGGACGAAAGUCCAGGUAGGUCGCAGCACUCCUUCAACAUGGGAGAGGGAG [(M1)-(M2)-(Arg1)-(Arg2)-(A)'-(M)'-(A)''_Design1],39.9 nM,64.2 nM,59.8 nM,72.5 nM,53.2 nM
CGCCUACAGGUGUACUAUUGUGGUGAAGAUACCAGAUAGCCCAAUAUCCCUUGGCAGCUUCAGACAUGAGGAUCACCCAUGUAUC [theeternabot_exclusion_MS2_Theo_A_30],17.8 nM,–,18.7 nM,–,15.5 nM
UCGCAUUGCUGCGAUACCAGACAUGAGGAUCACCCAUGUACCAAGAAAACGUACAUAAAUGUCCCUUGGCAGCGCAGCAAUGCGU [MAT - Exclusion Theophlline B - Mod of Eli - D26],148 nM,–,656 nM,–,631 nM
ACAUGAGGAUCACCCAUGUGAUGGCACGAUACCAGCUGAUCCCGUGGCCCUUGGCAGCGUCCGGUGUGGUCCGGCGGGUGGGACG [qqwmullin],30.1 nM,21.5 nM,97.8 nM,25.9 nM,21.2 nM
UGCAUCAUAAUCAUGUAGGUGCUAGGUGAUACCAGCAUCGAAAGAUGCCCUUGGCAGCACCAACAUGAGGAUCACCCAUGUAAUA [(MT)''-(M)'-(T')-(Theo)-(Ms2)_Design1/22_1],48.4 nM,–,186 nM,–,231 nM
